The record followed here is US20210275657A1, “NEOANTIGENS AND USES THEREOF” (BioNTech US Inc., priority 2018, published 2021).

What all share (conditions): remark: other sources report otherwise
In experiment [1] the target is HLA-A02:01 (human). As to the kind of experiment: peptide-HLA affinity, Example 41.
The target in experiment [2] is HLA-B07:02 (human). The experiment is described as follows: peptide-HLA affinity, Example 41.
Experiment [3] has as its target HLA-A02:01 (human). The experiment is described as follows: peptide-HLA stability, Example 41.
Experiment [4] has as its target HLA-B07:02 (human). The experiment is described as follows: peptide-HLA stability, Example 41.
Experiment [5] concerns the target HLA-B08:01 (human). As to the kind of experiment: peptide-HLA stability, Example 41.
The target in experiment [6] is HLA-A02:01 (human). The experiment is described as follows: peptide-HLA affinity, Example 36.
In experiment [7] the target is HLA-A02:01 (human). As to the kind of experiment: peptide-HLA stability, Example 36.
Experiment [8] has as its target HLA-B07:02 (human). The experiment is described as follows: peptide-HLA affinity, Example 36.
Experiment [9] deals with HLA-B08:01 (human). As to the kind of experiment: peptide-HLA affinity, Example 36.
Experiment [10] deals with HLA-B07:02 (human). The experiment is described as follows: peptide-HLA stability, Example 36.
In experiment [11] the target is HLA-B08:01 (human). The experiment is described as follows: peptide-HLA stability, Example 36.
Experiment [12] has as its target HLA-A24:02 (human). The experiment is described as follows: peptide-HLA affinity, Example 9.
In experiment [13] the target is HLA-A02:01 (human). The experiment is described as follows: peptide-HLA stability, Example 9.
Experiment [14] has as its target HLA-A24:02 (human). The experiment is described as follows: peptide-HLA stability, Example 9.
For experiment [15], the target named is HLA-B08:01 (human). The experiment is described as follows: peptide-HLA stability, Example 9.
Experiment [16] has as its target HLA-A02:01 (human). As to the kind of experiment: pMHC-I dissociation, 125I-b2m, 37C; average of 2.
Experiment [17] deals with HLA-B08:01 (human). As to the kind of experiment: pMHC-I dissociation, 125I-b2m, 37C; average of 2.
Experiment [18] addresses HLA-A02:01 (human). The experiment is described as follows: pMHC-I dissociation, 125I-b2m, 37C; experiment 1.
Experiment [19] deals with HLA-B08:01 (human). The experiment is described as follows: pMHC-I dissociation, 125I-b2m, 37C; experiment 1.
In experiment [20] the target is HLA-A02:01 (human). As to the kind of experiment: pMHC-I dissociation, 125I-b2m, 37C; experiment 2.
Experiment [21] has as its target HLA-B08:01 (human). The experiment is described as follows: pMHC-I dissociation, 125I-b2m, 37C; experiment 2.
Experiment [22] concerns the target HLA-A01:01 (human). The experiment is described as follows: peptide-HLA affinity, Example 41.
Experiment [23] concerns the target HLA-A01:01 (human). As to the kind of experiment: peptide-HLA stability, Example 41.
The target in experiment [24] is HLA-A02:01 (human). The experiment is described as follows: peptide-HLA affinity, Example 9.

Turning to MQLMPFGCL, the Affinity in [1] was 116 nM; in [2] it was 1590 nM. In addition, the Stability (1/2 hr) in experiment [3] turned out to be 0.368 h; in [4], 0 h; in experiment [5], 0 h.

Turning to YMANGSLLN, the Affinity in experiment [6] was 4000 nM. The same molecule registered a Stability (1/2 hr) in experiment [7] of 0 h.

Take SLLNYLREM: the Affinity was determined as 67.7 nM in experiment [6], 866 nM in experiment [8] and 960 nM in [9]. Besides, the results for the Stability (1/2 hr) in experiment [7], in [10] and in experiment [11] were 3.04 h, 0 h and 0 h, respectively.

In the case of YMFLKAESKI, the Observed MHC affinity in experiment [12] worked out at 7 µM. Also, the values for the Observed MHC stability in experiment [13], in experiment [14] and in [15] were 0.6 h, 1.2 h and 0.4 h, respectively. Also, the half-life in experiment [16] was found to be 36 min; in experiment [17], 24 min; in [18], 36 min; in [19] it was 24 min; in experiment [20] it was 36 min; in [21] it was 30 min.

IMQLMPFGC: the Affinity in [1] is 1210 nM. Also, the Stability (1/2 hr) in [3] came out at 0.37 h.

CLTSTVQLIM: the Affinity in experiment [22] amounted to 8.28 µM; in experiment [1], 537 nM. Also, the Stability (1/2 hr) in experiment [23] and in [3] was 0 h throughout.

Turning to IMQLMPFGCL, in [1], the Affinity was 653 nM. In addition, the Stability (1/2 hr) is 0.516 h in experiment [3] and 0 h in experiment [5].

On to STVQLIMQL, for which the Affinity in experiment [1] was found to be 7260 nM. For the same molecule, the Stability (1/2 hr) in experiment [3] turned out to be 0 h.

Consider LTSTVQLIM, for which the Affinity in experiment [22] worked out at 2.89 µM. The molecule also yielded a Stability (1/2 hr) in experiment [23] of 0.104 h.

For the molecule MANGSLLNYL, the Affinity in [6] was 1010 nM. The molecule further yielded a Stability (1/2 hr) in experiment [7] of 0 h.

In experiment [1], MQLMPFGCLL showed an Affinity of 16.3 nM. Further, in experiment [3], the Stability (1/2 hr) was found to be 0.381 h.

Turning to LIMQLMPFG, in experiment [1], the Affinity worked out at 3340 nM. Moreover, the Stability (1/2 hr) in [3] came to 0 h.

As for ALQPLQPHA, the Observed MHC affinity in experiment [24] worked out at 604 nM. Besides, the Observed MHC stability in experiment [13] is 1.5 h.

Broadly, the half-life is the time needed for the level to fall by half in the phase considered.
